Laboratory results: article PMC12123718 (Respiratory Research, 2025)

Target: recombinant human PKM2 (rhPKM2) (human, UniProt P14618 1-531)
Assay: SPR

Chain of recombinant human PKM2 (rhPKM2) (P14618 whole entry): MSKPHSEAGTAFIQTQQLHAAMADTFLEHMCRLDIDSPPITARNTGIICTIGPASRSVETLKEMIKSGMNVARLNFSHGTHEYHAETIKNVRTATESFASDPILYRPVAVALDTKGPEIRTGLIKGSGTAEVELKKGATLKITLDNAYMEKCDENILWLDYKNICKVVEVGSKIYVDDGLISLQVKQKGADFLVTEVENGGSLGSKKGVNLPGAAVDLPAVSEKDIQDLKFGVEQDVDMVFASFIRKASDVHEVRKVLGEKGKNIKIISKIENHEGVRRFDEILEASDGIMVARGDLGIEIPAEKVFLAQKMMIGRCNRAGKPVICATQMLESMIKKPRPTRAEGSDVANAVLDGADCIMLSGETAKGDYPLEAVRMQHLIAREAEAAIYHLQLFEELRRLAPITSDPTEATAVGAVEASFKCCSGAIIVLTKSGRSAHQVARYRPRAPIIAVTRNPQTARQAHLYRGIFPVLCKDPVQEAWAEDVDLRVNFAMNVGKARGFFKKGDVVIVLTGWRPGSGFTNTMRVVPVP

Kd: 50.6 nM
B1: recombinant hPFN2 (rhPFN2) (natural protein, human, UniProt P35080 1-140, looked up)
chain: MAGWQSYVDNLMCDGCCQEAAIVGYCDAKYVWAATAGGVFQSITPIEIDMIVGKDREGFFTNGLTLGAKKCSVIRDSLYVDGDCTMDIRTKSQGGEPTYNVAVGRAGRVLVFVMGKEGVHGGGLNKKAYSMAKYLRDSGF
